Test results: patent publication US9340577B2, “HLA binding motifs and peptides and their uses” (priority 1992, dated 2016)
Several values for one entry are separate records, joined by “and”; a condition that tells them apart may be missing. Equal values may be shown once. Read-outs that look alike come from different tables or passages of the source. No end group written: not given here.

Legend:
DR1 (DRB1*0101) = DR1 (DRB1*0101) (Homo sapiens, UniProt P01903+P01911, A100R/D57E/F55L/F60I/F76Y/I96L/L162R/M171V/P40L/Q125E/R42F/V115G/Y59C); assay: biochemical; type: binding
A2.1 HLA molecules = A2.1 HLA molecules (Homo sapiens, UniProt P04439, D140Y/D185E/D98H/E176V/E277Q/G131W/G231S/I119V/I121R/I166T/I218V/L300P/L318F/N151K/N90K/P208A/P217A/Q86G/Q94H/R138H/R169H/T345S); type: binding; set-up: A*0201 / A2.1 Binding / A2 Bind. / A2 / A2.1 (binding capacity): scale not given here

## KIFGSLTFLPESFDGDPA [Peptide 9014.0244]
DR1 (DRB1*0101)
  IC50: 233 nM

## KLFGSLAFLPESFDGDPA [Peptide 9014.0234]
DR1 (DRB1*0101)
  IC50: 795 nM

## KLVALGINAV [Peptide F127.07]
A2.1 HLA molecules; Table 152, binding value, unit not given
  A*0201: 0.0700

## KLVALGVNAV [Peptide F124.12]
A2.1 HLA molecules
  A*0201: 0.0200

## KLVSLGVNAV [Peptide F124.23]
A2.1 HLA molecules
  A*0201: 0.0150

## KLWVTVYYGV
A2.1 HLA molecules
  A2 Bind.: 0.0150

## KMFBQLAKV [Peptide 34.014]
A2.1 HLA molecules
  A*0201: 0.0980

## KVFGSLAFLPESFDGDPA [Peptide 9014.0235]
DR1 (DRB1*0101)
  IC50: 672 nM

## KWFGSLAFLPESFDGDPA [Peptide 9014.0236]
DR1 (DRB1*0101)
  IC50: 447 nM

## KYFGSLAFLPESFDGDPA [Peptide 9014.0237]
DR1 (DRB1*0101)
  IC50: 949 nM

## LIISCSCPTV
A2.1 HLA molecules
  A2 Bind.: 0.0290

## LLALLSCLTI
A2.1 HLA molecules
  A2: 0.0340

## LLALLSCLTV [Peptide F127.03]
A2.1 HLA molecules
  A*0201: 0.0240

## LLCLGWLWGM
A2.1 HLA molecules
  A2 Bind.: 0.0220

## LLCPAGHAV [Peptide F127.06]
A2.1 HLA molecules
  A*0201: 0.0140

## LLEDWGPCA
A2.1 HLA molecules
  A2 Bind.: 0.0180

## LLFFWLDRSV
A2.1 HLA molecules
  A2 Bind.: 0.6000

## LLFNILGWV [Peptide F127.09]
A2.1 HLA molecules
  A*0201: 1.7000

## LLGANSFEV
A2.1 HLA molecules
  A2 Bind.: 0.1100

## LLGDNQIMV
A2.1 HLA molecules
  A2.1 relative binding (ratio of binding of test peptide relative to standard peptide): 0.043

## LLGRASFEV
A2.1 HLA molecules
  A2 Bind.: 0.2200

## LLGRNAFEV
A2.1 HLA molecules
  A2 Bind.: 0.0390

## LLGRNSFAV
A2.1 HLA molecules
  A2 Bind.: 0.0420

## LLGRNSFRV
A2.1 HLA molecules
  A2 Bind.: 0.0250

## LLGRRSFEV
A2.1 HLA molecules
  A2 Bind.: 0.0540

## LLLCRLPFL
A2.1 HLA molecules
  A2 Bind.: 0.4200
  A2.1 Binding: 0.42

## LLLYYDYSL
A2.1 HLA molecules
  A2 Bind.: 0.2800
  A2.1 Binding: 0.28

## LLPFVQWFV [listing 1 of 2 here]
A2.1 HLA molecules
  A2 Bind.: 0.6500

## LLPFVQWFV [listing 2 of 2 here]
A2.1 HLA molecules
  A2.1 relative binding (ratio of binding of test peptide relative to standard peptide): 0.63

## LLSTTEWQV
A2.1 HLA molecules
  A2 Bind.: 0.0480

## LLTEVETYV
A2.1 HLA molecules
  A2 Bind.: 0.2000

## LLTEVETYVL
A2.1 HLA molecules
  A2 Bind.: 0.0130

## LLVPFVQWFA
A2.1 HLA molecules
  A2 Bind.: 0.2600

## LLWFHISCLI
A2.1 HLA molecules
  A2 Bind.: 0.0130

## LLWKGEGAVV
A2.1 HLA molecules
  A2: 0.0360

## LLWWITILL
A2.1 HLA molecules
  A2 Bind.: 0.4900
  A2.1 Binding: 0.49

## LMCRYTPRL
A2.1 HLA molecules
  A2.1 Binding: 0.0055

## LMDLLMFST
A2.1 HLA molecules
  A2 Bind.: 0.0460

## LMFSTSAYL
A2.1 HLA molecules
  A2 Bind.: 0.3600

## LMIRGVLEV
A2.1 HLA molecules
  A2 Bind.: 0.4500
  A2.1 Binding: 0.45

## LMLGTLEEV
A2.1 HLA molecules
  A2.1 relative binding (ratio of binding of test peptide relative to standard peptide): 0.13

## LMLLDYQGMV
A2.1 HLA molecules
  A2.1 relative binding (ratio of binding of test peptide relative to standard peptide): 0.0087

## LMLQAGFFLV [listing 1 of 2 here]
A2.1 HLA molecules
  A2 Bind.: 0.6300

## LMLQAGFFLV [listing 2 of 2 here]
A2.1 HLA molecules
  A2.1 relative binding (ratio of binding of test peptide relative to standard peptide): 0.63

## LMPFVQWFV [listing 1 of 2 here]
A2.1 HLA molecules
  A2 Bind.: 0.8300

## LMPFVQWFV [listing 2 of 2 here]
A2.1 HLA molecules
  A2.1 relative binding (ratio of binding of test peptide relative to standard peptide): 0.83

## LMPPPVAEL
A2.1 HLA molecules
  A2.1 Binding: 0.0066

## LMTLATWVGV
A2.1 HLA molecules
  A2 Bind.: 0.6800

## LVPFVQWFA
A2.1 HLA molecules
  A2.1 relative binding (ratio of binding of test peptide relative to standard peptide): 0.0031

## MLDLQPETT
A2.1 HLA molecules
  A2 Bind.: 0.0130

## MLLRLSEPAEL
A2.1 HLA molecules
  A2 Bind.: 0.1400

## MLNVMKEAV
A2.1 HLA molecules
  A2.1 Binding: 0.0039

## MMWFVVLTV
A2.1 HLA molecules
  A2 Bind.: 0.7600
  A2.1 Binding: 0.76

## MVTTTNPLI
A2.1 HLA molecules
  A2 Bind.: 0.0150

## NASLLIQNSIQNDTG [Peptide 9014.0015]
DR1 (DRB1*0101)
  IC50: 100 nM

## NISGYNFSL
A2.1 HLA molecules
  A2 Bind.: 0.0280

## NLEVIHDAL
A2.1 HLA molecules
  A2.1 Binding: 0

## NLGNLNVSV
A2.1 HLA molecules
  A2 Bind.: 0.0160

## NLNNLNVSI
A2.1 HLA molecules
  A2 Bind.: 0.0660

## NLWVTVYYGV
A2.1 HLA molecules
  A2 Bind.: 0.0160

## PLAYERDKL
A2.1 HLA molecules
  A2.1 Binding: 0

## PLRVTPSDL
A2.1 HLA molecules
  A2.1 Binding: 0

## PMEAVRHPL
A2.1 HLA molecules
  A2.1 Binding: 0

## QLDYEKQVL
A2.1 HLA molecules
  A2.1 Binding: 0

## QLFHLCLII
A2.1 HLA molecules
  A2 Bind.: 0.0390

## QLNAMKPDL
A2.1 HLA molecules
  A2.1 Binding: 0.0001

## QLWVTVYYGV
A2.1 HLA molecules
  A2 Bind.: 0.0250

## QNFIQNDTGFYTLHV [Peptide 9014.0071]
DR1 (DRB1*0101)
  IC50: 677 nM

## QNYIQNDTGFYTLHV [Peptide 9014.0077]
DR1 (DRB1*0101)
  IC50: 454 nM

## RLCCQLDPA
A2.1 HLA molecules
  A2 Bind.: 0.0290

## RLGRNSFEV
A2.1 HLA molecules
  A2 Bind.: 0.0190

## RLLLTSLFFL
A2.1 HLA molecules
  A2.1 Binding: 0.34

## RLLRGLIRL
A2.1 HLA molecules
  A2 Bind.: 0.0370

## RLLTSLFFL
A2.1 HLA molecules
  A2 Bind.: 0.3400

## RLPDRVHFA
A2.1 HLA molecules
  A2 Bind.: 0.0940

## RLQPNVPLV
A2.1 HLA molecules
  A2 Bind.: 0.0480
  A2.1 Binding: 0.048

## RLSWPKFAV
A2.1 HLA molecules
  A2.1 relative binding (ratio of binding of test peptide relative to standard peptide): 0.0072

## RLTGGVFLV [listing 1 of 2 here]
A2.1 HLA molecules
  A2 Bind.: 0.1600

## RLTGGVFLV [listing 2 of 2 here]
A2.1 HLA molecules
  A2.1 relative binding (ratio of binding of test peptide relative to standard peptide): 0.14 and 0.16

## RLTWRLTWL
A2.1 HLA molecules
  A2.1 Binding: 0.0052

## RTTVKTITLSAELPK [Peptide 9014.0065]
DR1 (DRB1*0101)
  IC50: 721 nM
